Patent US20230082287A1, “METHODS OF TREATING AN INFLAMMATORY OR OBSTRUCTIVE AIRWAY DISEASE USING ANTI-TSLP ANTIBODY” (Novartis AG, priority 2020, published 2023)
Like-named read-outs stand apart in the source and are kept apart here.

Tests used:
[1] = GLP monkey toxicity study: dose and exposure multiples versus human 4 mg QD dose; assay type: in vivo, cynomolgus monkey
Excerpt: The rationale for a 12-week study treatment duration was based on the following: (i) the 12-week treatment period was warranted from a safety perspective given the data from the 13-week cynomolgus monkey toxicity study; (ii) the 12-week dosing period was anticipated to provide greater information on the PK profile of CSJ117 in humans (as compared to a shorter study duration); (iii) completing 12-weeks of dosing prior to dose escalation(s) provided greater safety information, as systemic exposure is expected to have achieved steady state; (iv) 12 weeks was expected to be sufficient duration to allow assessment of PD effects in the AIC.
Lung weight scaling was selected for the HED calculation due to the CSJ117-related changes in the respiratory tract and the lack of significant systemic side effects in the monkey toxicity studies. • Exposure multiples were also calculated to compare the observed systemic exposure in monkeys with the systemic exposure in humans, based on the observed single dose PK data in healthy subjects, assuming either linear or nonlinear PK. For multiple daily inhalations in humans, assuming linear and time-independent PK (i.e., a 2.4 fold accumulation ratio), the estimated human systemic exposure at steady state for a 4 mg dose was 948-fold below the monkey Day 91 systemic exposure.

[2] = test system: late asthmatic response (LAR); test: Hill equation simulation of CSJ117 dose-response (LAR efficacy); design: species or system human; details: for Predicted efficacy: range over Emax scenarios; for ED50: Dose = 4 mg, E = 47.6%, Hill slope n = 1
Protocol: Simulation of Dose-Response Curves of CSJ117 from Doses Ranging from 0.5 to 8 mg:
% Efficacy of CSJ117 in PoC study compared to placebo was calculated using following formula: % E=[(B−A)/B]×100, where, E=Efficacy; A and B are LAR measured by max fall % FEV1 value in treated and placebo groups, respectively.
Maximum efficacy (Emax) of CSJ117 is unknown at this time and three potential values of Emax are possible:
From Emax and ED50 in each scenario above, a dose-response curve was generated using Hill equation to assess range of efficacy values resulting from 0.5 to 8 mg once daily dose of CSJ117 (FIGS. 6 and 7). Efficacy due to 0.5 mg and 8 mg once daily dose of CSJ117 is predicted to range from 10-35% and 65-88% of maximum effect, respectively. As visible in plots of FIGS. 6 and 7, the planned dose range of 0.5, 1, 2, 4, and 8 mg o.d. of CSJ117 during Ph2B (Example 4) is expected to adequately describe the dose-response for CSJ117.

[3] = in vivo
Protocol: Single dose of 1 mg (Cohort 1), 3 mg (Cohort 2), 9 mg (Cohort 3), 32 mg (Cohort 4), 64 mg (Cohort 5), 160 mg (Cohort 6) or placebo was administered via inhalation. First-in-human study was conducted in 51 healthy volunteers (HVs), of which 37 subjects were exposed to CSJ117 and 12 to placebo.
The PK analysis set for the FIH SAD Study included 37 subjects. PK samples were collected up to 28 days post dose.

[4] = Healthy Japanese SAD study: serum CSJ117 pharmacokinetics; details: cross-study comparison at 9 and 32 mg
Protocol: (§1) In addition, the PK analysis set for the healthy Japanese SAD Study included 18 subjects, six subjects per single inhaled dose of 9, 16 and 32 mg administered via Concept 1 device.

[5] = First-in-human single ascending dose study: safety and tolerability; assay type: in vivo
Protocol: The safety, tolerability and PK of CSJ117 have been evaluated in healthy volunteers (HV) in a single ascending dose (SAD) study.
A first-in-human, randomized, subject-blind, placebo controlled, single ascending dose study was conducted to assess the safety, tolerability and pharmacokinetics of CSJ117 in adult healthy subjects. Single dose of 1 mg (Cohort 1), 3 mg (Cohort 2), 9 mg (Cohort 3), 32 mg (Cohort 4), 64 mg (Cohort 5), 160 mg (Cohort 6) or placebo was administered via inhalation.

[6] = human, in vivo, inhaled or intranasal, 32 mg
Protocol: as §1

[7] = human, inhaled or intranasal, 1 mg
[8] = human, inhaled or intranasal, 3 mg
[9] = human, inhaled or intranasal, 9 mg
[10] = human, inhaled or intranasal, 32 mg
[11] = human, inhaled or intranasal, 64 mg
[12] = human, inhaled or intranasal, 160 mg

B1: CSJ117: potent neutralizing antibody fragment (Fab) directed against human TSLP; heavy chain SEQ ID NO: 9, light chain SEQ ID NO: 19 (antibody)
heavy: EVQLVESGGGLVKPGGSLRLSCAASGFTFSDYWMHWVRQAPGKGLEWVGHIKSKTDAGTTDYAAPVKGRFTISRDDSKNTLYLQMNSLKTEDTAVYYCAREIYYYAFDSWGQGTLVTVSSASTKGPSVFPLAPSSKSTSGGTAALGCLVKDYFPEPVTVSWNSGALTSGVHTFPAVLQSSGLYSLSSVVTVPSSSLGTQTYICNVNHKPSNTKVDKRVEPKSC
light: SYELTQPLSVSVALGQTARITCSGDNIGSKYVHWYQQKPGQAPVLVIYGDNERPSGIPERFSGSNSGNTATLTISRAQAGDEADYYCQAADWVDFYVFGGGTKLTVLGQPKAAPSVTLFPPSSEELQANKATLVCLISDFYPGAVTVAWKADSSPVKAGVETTTPSKQSNNKYAASSYLSLTPEQWKSHRSYSCQVTHEGSTVEKTVAPTECS
In the case of B1, the “Accumulation ratio in humans” value ([1]; cynomolgus monkey, in vivo) is reported as 2.4 fold, the “Systemic accumulation ratio observed in monkeys” value ([1]; cynomolgus monkey, in vivo) is reported as 148 fold and the “Dose multiple: human equivalent dose of monkey NOAEL versus 4 mg QD” value ([1]; lung weight scaling) is reported as 51.5 fold. For the same molecule, the Predicted efficacy ([2]; 0.5 mg once daily dose) was 10-35 % of maximum effect, the Predicted efficacy ([2]; 8 mg once daily dose) was 65-88 % of maximum effect and the ED50 ([2]; Scenario 1: Emax 100%) was 4.4 mg. For the same molecule, the ED50 ([2]; Scenario 2: Emax 80%) was 2.3 mg, the ED50 ([2]; Scenario 3: Emax 60%) was 1.0 mg and the “mean terminal elimination half-life (T1/2)” value ([3]; human, inhaled or intranasal) was 17.4 to 21.1 h. For the same molecule, the “median time to achieve maximum CSJ117 serum concentration (Tmax)” value ([3]; human, inhaled or intranasal) was 6 to 21 h, the AUClast [3, 7] was 109 ng·h/mL and the Cmax [3, 7] was 5.90 ng/mL. It also gave a T1/2 [3, 7] of 18.5 h, a Tmax [3, 7] of 21.0 h and an AUClast [3, 8] of 127 ng·h/mL. For the same molecule, the Cmax [3, 8] was 5.65 ng/mL, the T1/2 [3, 8] was 18.7 h and the Tmax [3, 8] was 12.0 h. It also gave an AUCinf [3, 9] of 597 ng·h/mL, an AUClast [3, 9] of 353 ng·h/mL and a CL/F [3, 9] of 15.6 L/h. It also gave a Cmax [3, 9] of 12.5 ng/mL, a T1/2 [3, 9] of 21.1 h and a Tmax [3, 9] of 12.0 h. For the same molecule, the Vz/F [3, 9] was 481 L, the AUCinf [3, 10] was 1710 ng·h/mL and the AUClast [3, 10] was 1610 ng·h/mL. It also gave a CL/F [3, 10] of 22.0 L/h, a Cmax [3, 10] of 57.6 ng/mL and a T1/2 [3, 10] of 17.4 h. It also gave a Tmax [3, 10] of 6.00 h, a Vz/F [3, 10] of 555 L and an AUCinf [3, 11] of 2650 ng·h/mL. It also gave an AUClast [3, 11] of 2500 ng·h/mL, a CL/F [3, 11] of 28.5 L/h and a Cmax [3, 11] of 61.4 ng/mL. For the same molecule, the T1/2 [3, 11] was 20.1 h, the Tmax [3, 11] was 12.0 h and the Vz/F [3, 11] was 815 L. For the same molecule, the AUCinf [3, 12] was 5750 ng·h/mL, the AUClast [3, 12] was 5590 ng·h/mL and the CL/F [3, 12] was 33.0 L/h. It also gave a Cmax [3, 12] of 152 ng/mL, a T1/2 [3, 12] of 18.2 h and a Tmax [3, 12] of 9.00 h. For the same molecule, the Vz/F [3, 12] was 915 L, the “CSJ117 serum exposure versus dose” value [3] was “increased in a dose-dependent manner” and the “AUCinf in Japanese relative to non-Japanese subjects” value [4] was 0.6-1.5 fold. For the same molecule, the “Cmax in Japanese relative to non-Japanese subjects” value [4] was 0.5-1.1 fold, the “Subjects with adverse events (AEs)” value ([5]; 7/37 CSJ117 subjects, single inhaled doses 1-160 mg) was 19 % of subjects and the “Deaths or serious adverse events” value ([5]; FIH study) was “no deaths or serious adverse events”. For the same molecule, the “mean T1/2” value [6] was 18.6 to 22.4 h.
